Results taken from US20210054043A1 (HADASIT MEDICAL RESEARCH SERVICES AND DEVELOPMENT, published 2021).

T1: isolated ectodomain of SLAMF1 containing a 6-histidine tag (seSLAMF1) (UniProt Q13291 21-237, limits assumed)
T1 construct: extracellular domain; not shown: 6-histidine tag
T1 sequence (looked up): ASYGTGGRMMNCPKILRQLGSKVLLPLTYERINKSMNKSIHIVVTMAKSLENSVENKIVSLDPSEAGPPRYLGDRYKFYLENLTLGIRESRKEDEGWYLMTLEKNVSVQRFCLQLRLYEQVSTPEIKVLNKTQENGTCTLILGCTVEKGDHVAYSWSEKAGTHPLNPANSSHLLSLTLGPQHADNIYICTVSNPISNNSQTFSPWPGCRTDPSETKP

B1: Fc-fused ectodomain of SLAMF6^var1 (seSLAMF6_Fc, Creative Biomart) (Fc fusion)
chain: QSSLTPLMVNGILGESVTLPLEFPAGEKVNFITWLFNETSLAFIVPHETKSPEIHVTNPKQGKRLNFTQSYSLQLSNLKMEDTGSYRAQISTKTSAKLSSYTLRILRQLRNIQVTNHSQLFQNMTCELHLTCSVEDADDNVSFRWEALGNTLSSQPNLTVSWDPRISSEQDYTCIAENAVSNLSFSVSAQKLCEDVKIQYTDTKM
notes: Bought reagent, coated on the plate at 1 ug/ml; Only the ectodomain stood in the assay; also called full length seSLAMF6-Fc; SLAMF6^var1 ectodomain (Fc-conjugated); not shown: Fc portion

Legend:
Test in all cases: ELISA, seSLAMF6-Fc coated on the plate, anti-His-HRP detection
[1] = molecular target: B1
Method: (§1) FIG. 11. seSLAMF6-V3 binding to full length seSLAMF6-Fc using ELISA. seSLAMF6-Fc was pre-coated to MaxiSorb plate. Soluble ectodomains from various SLAM family members (seSLAMF6, seSLAMF6-V3, seSLAMF1, seSLAMF7 and seSLAMF8, all containing 6-Histidine tags) were then added. An anti- Histidine antibody was used for detection.
(§2) MaxiSorb plates were pre-coated overnight with an Fc-fused ectodomain of SLAMF6^var1 (seSLAMF6_Fc, Creative Biomart, at 1 μg/ml and 4° C.). On the next day, the plate was washed and blocked using blocking buffer containing 1% BSA in PBSX1. Next, the plate was incubated for two hours with different concentrations of isolated ectodomains (containing 6-histidine tags) from SLAMF6^var1 (Prospec, seSLAMF6) or SLAMF6^var3 (Novoprotein/Bonopus, seSLAMF6-V3), or from SLAMF1, SLAMF7 or SLAMF8 (seSLAMF1, seSLAMF7 and seSLAMF8, respectively). The amount of receptor-bound ectodomain polypeptides was detected using horseradish peroxidase (HRP)-conjugated antibodies directed to the histidine tag (anti-HIS Abs) and quantified using an ELISA reader.

[2] = molecular target: T1, isolated ectodomain of SLAMF1 …
Method: as §1, §2

[3] = molecular target: T2, isolated ectodomain of SLAMF8 containing a 6-histidine tag (seSLAMF8) (UniProt Q9P0V8 23-233, limits assumed)
T2 construct: extracellular domain; not shown: 6-histidine tag
Method: as §1, §2

T2 sequence (Q9P0V8 23-233 limits assumed): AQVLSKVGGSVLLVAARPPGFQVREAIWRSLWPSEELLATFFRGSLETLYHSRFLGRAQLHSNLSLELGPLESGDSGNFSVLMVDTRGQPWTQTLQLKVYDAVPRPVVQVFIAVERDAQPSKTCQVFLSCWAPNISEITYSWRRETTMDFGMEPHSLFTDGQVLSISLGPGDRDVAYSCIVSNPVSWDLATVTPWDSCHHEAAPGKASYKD

binding result [1] | binding result [2] | binding result [3] | Binder
no binding |  |  | isolated ectodomain of SLAMF7 containing a 6-histidine tag (seSLAMF7) (receptor, UniProt Q9NQ25 23-226, looked up, extracellular domain; not shown: 6-histidine tag) SGPVKELVGSVGGAVTFPLKSKVKQVDSIVWTFNTTPLVTIQPEGGTIIVTQNRNRERVDFPDGGYSLKLSKLKKNDSGIYYVGIYSSSLQQPSTQEYVLHVYEHLSKPKVTMGLQSNKNGTCVTNLTCCMEHGEEDVIYTWKALGQAANESHNGSILPISWRWGESDMTFICVARNPVSRNFSSPILARKLCEGAADDPDSSM
binds |  |  | isolated SLAMF6^var3 ectodomain (seSLAMF6^var3), human, C-terminal 6-histidine tag (receptor, Expressed in HEK293 cells and purified on a Ni column (Novoprotein/BonOpus); The N-terminus is heterogeneous; also called seSLAMF6-V3; soluble ectodomain of SLAMF6^var3) GNVVSVPHETKSPEIHVTNPKQGKRLNFTQSYSLQLSNLKMEDTGSYRAQISTKTSAKLSSYTLRILRQLRNIQVTNHSQLFQNMTCELHLTCSVEDADDNVSFRWEALGNTLSSQPNLTVSWDPRISSEQDYTCIAENAVSNLSFSVSAQKLCEDVKIQYTDTKMGSHHHHHH
binds |  |  | isolated ectodomain of SLAMF6^var1 containing a 6-histidine tag (Prospec, seSLAMF6) (receptor, Bought reagent; Only the ectodomain stood in the assay; also called isolated SLAMF6^var1 ectodomain; not shown: 6-histidine tag) QSSLTPLMVNGILGESVTLPLEFPAGEKVNFITWLFNETSLAFIVPHETKSPEIHVTNPKQGKRLNFTQSYSLQLSNLKMEDTGSYRAQISTKTSAKLSSYTLRILRQLRNIQVTNHSQLFQNMTCELHLTCSVEDADDNVSFRWEALGNTLSSQPNLTVSWDPRISSEQDYTCIAENAVSNLSFSVSAQKLCEDVKIQYTDTKM
 | no binding | no binding | B1
